Laboratory results reported in IntAct's records for PubMed 21802063.

B1: Cell adhesion molecule-related/down-regulated by oncogenes (Rattus norvegicus (Rat)), O35158 (parent)
chain: MHPDLGPLWKLLYVLVILCSSVSSDLATYFISEPLSAVQKLGRPVVLHCSAKPVTARISWLHNGKRLDRNTEQIKIHRGTLTILSLNPSLSGCYQCVANNSVGAVVSGPATVSADALADFDSSTMHVITAEKKNTGFIGCRVPESNPKAEVRYKIRGKWLMYSTGNYIILPSGNLQILNVSSKDKGSYKCAAYNPVTSELKVEPAGRKLLVSRPSSDGFHILHPALSQALAVLPHSPVTLECVVSGVPASQVYWLKDGQDCLSGSNWRRLYSHLATASIDPADSGNYSCVVGNNSSGDVKHVTYTVNVLEHASISKGLHDQKVSLGATVRFTCEVHGNPAPNRTWFHNAQPIRPSSRHLTEGSVLKITGVIMEDSGLYQCMADNGIGFMQSTGRLQIEQDSGQRPVIVTAPANVEVTDGDFVTLSCNATGEPVPVIHWYGRHGLITSHPSQVLRSKSRKSHLFRPGDLDPEPVYLIMSQAGSSSLSIQAVTREHAGKYTCEAVNKHGSTQSEAFLTVVPFETNTKAEPVTPSEASQNDERDPRDGSESGLLNLFPVKVHSGGVELPAEKNASVPDAPNILSPPQTHMPDTYTLVWRTGRDGGMPINAYFVKYRKLDDGSGAVGSWHTVRVPGSESELHLTELEPSSLYEVLMVARSAVGEGQPAMLTFRTSKEKMASSKNTQASFPPVGIPKRPVTSEASNSNFGVVLTDSSRHSGVPEAPDRPTISMASETSVYVTWIPRANGGSPITAFKVEYKRMKSSDWLVAAEDIPPSKLSVEVRSLEPGSIYKFRVIVINHYGESFRSSASRPYQVAGFPNRFSNRPITGPHIAYTEAVSDTQIMLKWTYIPSSNNNTPIQGFYIYYRPTDSDNDSDYKRDVVEGSKQWHTIGHLQPETSYDIKMQCFNEGGESEFSNVMICETKVKRVPGASEYPMKELSTPPSSSGNGGNVGPATSPARSSDMLYLIVGCVLGVMVLILLVFIALCLWKSRQQSAIQKYDPPGYLYQGSEINGQMVEYTTLSGTARINGSVHGGFLSKGSLSNGCSHLHHKGPNGVNGILNGTINGGLYSAHTSSLTRTCVEFEHPHHLVNGGAVYTAVPQMDPLECINCRNCRNNNRCFTKTNSPLPVVPVVASYPQDGLEMKPLGVMKFPVCPVSTVPDGGQIPEECLKDSVAPAPTQRTCRQDNTSDINSDSTEDTAEFNRGDSSGHSEAEDKVFSWSPLILSPVLEDCSEKTAWSPPGPPLDGLSVVLQQAQET
partner: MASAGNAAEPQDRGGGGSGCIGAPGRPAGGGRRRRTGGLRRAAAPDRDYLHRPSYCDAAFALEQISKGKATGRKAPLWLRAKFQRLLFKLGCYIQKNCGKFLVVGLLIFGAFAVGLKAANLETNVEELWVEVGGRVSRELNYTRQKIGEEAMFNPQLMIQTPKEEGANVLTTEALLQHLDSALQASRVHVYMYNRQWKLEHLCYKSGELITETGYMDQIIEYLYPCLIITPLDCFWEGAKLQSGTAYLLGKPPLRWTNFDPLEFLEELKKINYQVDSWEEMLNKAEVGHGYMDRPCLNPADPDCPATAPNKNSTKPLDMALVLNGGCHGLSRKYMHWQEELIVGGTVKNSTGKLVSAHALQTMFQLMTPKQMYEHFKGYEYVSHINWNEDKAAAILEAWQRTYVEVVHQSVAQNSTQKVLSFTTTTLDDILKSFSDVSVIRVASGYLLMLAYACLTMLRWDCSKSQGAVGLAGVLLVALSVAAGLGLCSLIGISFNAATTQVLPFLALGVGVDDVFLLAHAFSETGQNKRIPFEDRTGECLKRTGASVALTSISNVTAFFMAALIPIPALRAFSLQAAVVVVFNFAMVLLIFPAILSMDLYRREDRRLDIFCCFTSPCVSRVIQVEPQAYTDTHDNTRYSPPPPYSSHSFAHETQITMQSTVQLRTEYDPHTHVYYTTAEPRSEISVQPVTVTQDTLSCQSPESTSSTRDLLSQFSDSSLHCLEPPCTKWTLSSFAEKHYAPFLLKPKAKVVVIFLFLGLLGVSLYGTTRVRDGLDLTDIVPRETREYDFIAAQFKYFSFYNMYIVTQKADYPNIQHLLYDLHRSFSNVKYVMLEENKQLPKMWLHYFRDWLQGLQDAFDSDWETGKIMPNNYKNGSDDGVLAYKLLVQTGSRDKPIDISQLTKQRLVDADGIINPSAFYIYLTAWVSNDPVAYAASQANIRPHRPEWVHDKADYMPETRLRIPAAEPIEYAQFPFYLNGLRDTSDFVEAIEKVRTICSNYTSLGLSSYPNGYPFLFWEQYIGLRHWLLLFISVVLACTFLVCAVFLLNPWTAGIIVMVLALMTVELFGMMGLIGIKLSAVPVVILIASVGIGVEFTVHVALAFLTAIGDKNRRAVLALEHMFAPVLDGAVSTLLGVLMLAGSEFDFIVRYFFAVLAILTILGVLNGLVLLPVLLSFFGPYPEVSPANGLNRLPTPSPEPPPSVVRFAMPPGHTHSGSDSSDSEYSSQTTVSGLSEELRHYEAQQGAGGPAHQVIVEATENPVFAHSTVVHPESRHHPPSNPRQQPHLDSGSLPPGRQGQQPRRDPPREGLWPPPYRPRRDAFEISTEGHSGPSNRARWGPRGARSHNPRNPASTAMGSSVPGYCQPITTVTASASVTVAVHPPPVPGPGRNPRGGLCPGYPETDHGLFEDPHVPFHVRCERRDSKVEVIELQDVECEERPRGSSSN
B2: Cell adhesion molecule-related/down-regulated by oncogenes (Rattus norvegicus (Rat)), O35158 (parent)
chain: B1 chain
partner: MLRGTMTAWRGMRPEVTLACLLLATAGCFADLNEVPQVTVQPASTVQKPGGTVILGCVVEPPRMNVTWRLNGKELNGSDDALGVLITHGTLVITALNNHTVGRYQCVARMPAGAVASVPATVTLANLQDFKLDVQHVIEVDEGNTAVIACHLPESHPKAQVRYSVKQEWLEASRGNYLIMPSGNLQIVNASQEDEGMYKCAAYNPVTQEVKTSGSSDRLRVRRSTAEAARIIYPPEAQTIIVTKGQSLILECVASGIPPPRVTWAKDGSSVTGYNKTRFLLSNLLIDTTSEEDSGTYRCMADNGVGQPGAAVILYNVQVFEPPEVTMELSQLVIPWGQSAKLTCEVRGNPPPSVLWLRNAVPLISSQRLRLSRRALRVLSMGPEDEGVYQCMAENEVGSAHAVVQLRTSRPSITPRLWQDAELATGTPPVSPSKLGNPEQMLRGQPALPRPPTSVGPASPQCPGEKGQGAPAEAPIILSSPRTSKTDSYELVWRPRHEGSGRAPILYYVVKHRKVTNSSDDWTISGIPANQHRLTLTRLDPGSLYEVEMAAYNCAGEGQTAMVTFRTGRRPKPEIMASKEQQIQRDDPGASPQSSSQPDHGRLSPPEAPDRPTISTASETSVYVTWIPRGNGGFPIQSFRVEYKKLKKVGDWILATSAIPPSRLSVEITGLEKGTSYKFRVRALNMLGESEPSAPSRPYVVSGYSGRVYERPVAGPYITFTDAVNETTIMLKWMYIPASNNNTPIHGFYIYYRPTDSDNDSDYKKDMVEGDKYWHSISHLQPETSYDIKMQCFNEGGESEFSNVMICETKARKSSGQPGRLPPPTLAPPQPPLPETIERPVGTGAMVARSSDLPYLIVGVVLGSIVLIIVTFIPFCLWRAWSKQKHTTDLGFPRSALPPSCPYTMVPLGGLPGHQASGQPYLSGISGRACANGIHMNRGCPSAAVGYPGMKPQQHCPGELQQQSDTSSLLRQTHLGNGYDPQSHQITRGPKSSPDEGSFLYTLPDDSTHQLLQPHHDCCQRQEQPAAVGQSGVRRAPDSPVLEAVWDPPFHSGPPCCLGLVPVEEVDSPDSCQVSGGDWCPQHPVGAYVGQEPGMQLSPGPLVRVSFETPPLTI
B3: Cell adhesion molecule-related/down-regulated by oncogenes (Rattus norvegicus (Rat)), O35158 (parent)
chain: B1 chain
partner: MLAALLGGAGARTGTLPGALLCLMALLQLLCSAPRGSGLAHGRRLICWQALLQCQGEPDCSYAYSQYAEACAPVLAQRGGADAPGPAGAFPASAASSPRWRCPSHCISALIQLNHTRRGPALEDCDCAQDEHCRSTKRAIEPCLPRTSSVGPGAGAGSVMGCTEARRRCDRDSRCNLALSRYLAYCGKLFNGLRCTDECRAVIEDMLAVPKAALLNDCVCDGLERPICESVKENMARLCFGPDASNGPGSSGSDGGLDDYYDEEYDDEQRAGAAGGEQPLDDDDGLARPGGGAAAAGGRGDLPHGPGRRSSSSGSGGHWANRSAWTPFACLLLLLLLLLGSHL

Variants of: B1
Conditions: with ptc1_human PTCH1, Q13635

Row | effect of a mutation on the interaction | Variant
1 | decreasing interaction strength | S937R
2 | decreasing interaction strength | V688M
3 | decreasing interaction strength | P686A
4 | decreasing interaction strength | I787A
5 | with no effect | T681S
6 | decreasing interaction strength | V777E

Variants of: B2
Conditions: with boc_human BOC

Row | effect of a mutation on the interaction | Variant
7 | decreasing interaction strength | P686A
8 | with no effect | I787A
9 | with no effect | V688M
10 | with no effect | S937R
11 | with no effect | T681S
12 | with no effect | V777E

Variants of: B3
Conditions: with gas1_mouse Gas1, Q01721

Row | effect of a mutation on the interaction | Variant
13 | decreasing interaction strength | S937R
14 | with no effect | T681S
15 | with no effect | V777E
16 | with no effect | V688M
17 | decreasing interaction strength | P686A
18 | decreasing interaction strength | I787A
